Test results from patent publication US20230272049A1.

Tests used:
108 of 110 HLA types = experiment: cell-based or functional assay
[1] = molecular target: the alloreactive alleles (2 of 110 HLA types); experiment: cell-based or functional assay

- inhibition on target cell growth after 48 h of co-culture (alloreactivity screen) (% target cell inhibition) (108 of 110 HLA types): < 20
- inhibition on target cell growth after 48 h of co-culture (alloreactivity screen) (% target cell inhibition) [1]: > 20
B1: E7-11-28 MGTM (MG-modified TCR E7-11-28) (TCR)
TCR alpha: GQQVMQIPQYQHVQEGEDFTTYCNSSTTLSNIQWYKQRPGGHPVFLIQLVKSGEVKKQKRLTFQFGEAKKNSSLHITATQTTDVGTYFCAGIGSSNTGKLIFGQGTTLQVKPDIQNPDPAVYQLRDSKSSDKSVCLFTDFDSQTNVSQSKDSDVYITDKTVLDMRSMDFKSNSAVAWSNKSDFACANAFNNSIIPEDTFFPSSDVPCDVKLVEKSFETDTNLNFQNLLVIVLRILLLKVAGFNLLMTLRLWS
TCR beta: EPEVTQTPSHQVTQMGQEVILRCVPISNHLYFYWYRQILGQKVEFLVSFYNNEISEKSEIFDDQFSVERPDGSNFTLKIRSTKLEDSAMYFCAITGRVSYEQYFGPGTRLTVTEDLNKVFPPEVAVFEPSKAEIAHTQKATLVCLATGFFPDHVELSWWVNGKEVHSGVSTDPQPLKEQPALNDSRYCLSSRLRVSATFWQNPRNHFRCQVQFYGLSENDEWTQDRAKPVTQIVSAEAWGRADCGITSASYHQGVLSATILYEILLGKATLYAVLVSALVLMAMVKRKDFGSGRAKRSGSG
